B1: Twister Ribozyme (parent)
chain: AACACUGCCAAUGCCGGUCCCAAGCCCGGAUAAAAGUGGAGGGGGCGG

The variants in this series derive from B1. In words: self-cleavage, relative activity (ratio to wild type); higher = more cleavage; co-transcriptional.
On to AACACUGCCAAUGUCGGUCCCAAGCCUGGAUAAAAGUGGAGGGGGCGG, for which the self-cleavage was 0.896.

Turning to AACACUGCCAAUGUCGGUCCCAAGCCAGGAUAAAAGUGGAGGGGGCGG, the self-cleavage worked out at 0.586.

In the case of AACACUGCCAAUGUCGGUCCCAAGCCCGGAUAAAAGUGGAGGGGGAGG, the self-cleavage was determined as 1.05.

Turning to AACACUGCCAAUGUCGGUCCCAAGCCCGGAUAAGAGUGGAGGGGGCGG, the self-cleavage was determined as 0.885.

As to AACACUGCCAAUGUCGGUCCCAAGCCCGGAUAAAAGUGGAGGGGCCGG, the self-cleavage came out at 0.713.

In the case of AACACUGCCAAUGUCGGUCCCAAGCCCGGAUAAAAGUGGAGGGGACGG, the self-cleavage worked out at 0.999.

As for AACACUGCCAAUGUCGGUCCCAAGCCCGGAUAAAAGUGGAGGGGUCGG, the self-cleavage came out at 0.964.

With AACACUGCCAAUGUAGGUCCCAAGCCCGGAUAAAAGUGGAGGGGGCGG, the self-cleavage stood at 0.636.

As for AACACUGCCAAUGUUGGUCCCAAGCCCGGAUAAAAGUGGAGGGGGCGG, the self-cleavage stood at 1.51.

Consider AACACUGCCAAUGUCGGUCCCAAUCCCGGAUAAAAGUGGAGGGGGCGG, for which the self-cleavage stood at 0.135.

AACACUGCCAAUGUCGGUCCCAACCCCGGAUAAAAGUGGAGGGGGCGG: the self-cleavage stood at 0.102.

On to AACACUGCCAAUGUCGGUCCCAAACCCGGAUAAAAGUGGAGGGGGCGG, for which the self-cleavage came out at 0.173.

Turning to AACACUGCCAAUGUCGGUCCCAAGCCCUGAUAAAAGUGGAGGGGGCGG, the self-cleavage amounted to 1.08.

For the variant AACACUGCCAAUGUCGGUCCCAAGCCCGGAUAGAAGUGGAGGGGGCGG, the self-cleavage is 0.927.

With AACACUGCCAAUGUCGGUCCCAAGCCCGGAUACAAGUGGAGGGGGCGG, the self-cleavage was 0.97.

For the variant AACACUGCCAAUGGCGGUCCCAAGCCCGGACAAAAGUGGAGGGGGCGG, the self-cleavage came to 0.142.

In the case of AACACUGCCAAUGGCGGUCCCAAGCCCGGAAAAAAGUGGAGGGGGCGG, the self-cleavage was determined as 0.153.

For the variant AACACUGCCAAUGGCGGUCCCAAGCCCGGAGAAAAGUGGAGGGGGCGG, the self-cleavage was 0.158.

Take AACACUGCCAAUGUCGGUCCCAAGCGCGGAUAAAAGUGGAGGGGGCGG: the self-cleavage amounted to 0.235.

Consider AACACUGCCAAUGUCGGUCCCAAGCACGGAUAAAAGUGGAGGGGGCGG, for which the self-cleavage was 0.497.

Regarding AACACUGCCAAUGUCGGUCACAAGCCCGGAUAAAAGUGGAGGGGGCGG, the self-cleavage stood at 0.154.

As to AACACUGCCAAUGUCGGUCUCAAGCCCGGAUAAAAGUGGAGGGGGCGG, the self-cleavage amounted to 0.942.

On to AACACUGCCAAUGUCGGGCCCAAGCCCGGAUAAAAGUGGAGGGGGCGG, for which the self-cleavage is 0.0637.

As to AACACUGCCAAUGUCGGUCCCAAGCCCGGAUAAAAGUGGAGGGGGCGU, the self-cleavage turned out to be 1.17.

As for AACACUGCCAAUGUCGGUCCCAAGCCCGCAUAAAAGUGGAGGGGGCGG, the self-cleavage was 1.09.

For the variant AACACUGCCAAUGUCGGUCCCAAGCCCGGAUAAAAGUGGAGGGGGCGG, the self-cleavage stood at 1.1.

In the case of AACACUGCCAAUGUCGGUCCCAAGCCCGGAUUAAAGUGGAGGGGGCGG, the self-cleavage came out at 1.04.

AACACUGCCAAUGUCGGUCCCAAGACCGGAUAAAAGUGGAGGGGGCGG: the self-cleavage turned out to be 0.27.

AACACUGCCAAUGUCGGUCCCAAGUCCGGAUAAAAGUGGAGGGGGCGG: the self-cleavage was 0.909.

Turning to AACACUGCCAAUGUCGGUCCCAAGCCCGGAUAAAAGUGGAGAGGGCGG, the self-cleavage stood at 0.456.

In the case of AACACUGCCAAUGUCGGUCCCAAGCCCGGAUAAAAAUGGAGGGGGCGG, the self-cleavage turned out to be 0.789.

AACACUGCCAAUGUCGGUCCCAAGCCCGGAGAAAAGUGGAGGGGGCGG: the self-cleavage is 0.941.

In the case of AACACUGCCAAUGUCGGUCCCAAGCCCGGAAAAAAGUGGAGGGGGCGG, the self-cleavage was 0.92.

AACACUGCCAAUGUCGGUCCCAAGCCCGGAUAAAAGCGGAGGGGGCGG: the self-cleavage was found to be 0.602.

Consider AACACUGCCAAUGUCGGUCCCAAGCCCGGAUAAAAGUGGUGGGGGCGG, for which the self-cleavage is 0.191.

With AACACUGCCAAUGUCGGUCCCAAGCCCGGAUAAAAGUGGCGGGGGCGG, the self-cleavage turned out to be 0.256.

As for AACACUGCCAAUGUCGGUCCCAAGCCCGGGUAAAAGUGGAGGGGGCGG, the self-cleavage is 1.02.

Turning to AACACUGCCAAUGGCGGUCCCAAGCCCGGAUAAAAGCGGAGGGGGCGG, the self-cleavage stood at 0.0984.

In the case of AACACUGCCAAUGGCGGUCCCAAGCCCGGAUAAAAGAGGAGGGGGCGG, the self-cleavage was 0.0885.

As for AACACUGCCAAUGCAGGUCCCAAGCCCGGAUAAAAGUGGAGGGGGCGG, the self-cleavage was determined as 0.801.

Regarding AACACUGCCAAUGUCGGUCCCAAGCCCGGAUAAAAGUUGAGGGGGCGG, the self-cleavage was 0.904.

Regarding AACACUGCCAAUGUCGGUCCGAAGCCCGGAUAAAAGUGGAGGGGGCGG, the self-cleavage amounted to 0.108.

In the case of AACACUGCCAAUGUCCGUCCCAAGCCCGGAUAAAAGUGGAGGGGGCGG, the self-cleavage was determined as 0.36.

As to AACACUGCCAAUGUCAGUCCCAAGCCCGGAUAAAAGUGGAGGGGGCGG, the self-cleavage amounted to 0.871.

For the variant AACACUGCCAAUGCAGGUCCCGAGCCCGGAUAAAAGUGGAGGGGGCGG, the self-cleavage is 0.141.

AACACUGCCAAUGUCGAUCCCAAGCCCGGAUAAAAGUGGAGGGGGCGG: the self-cleavage came to 0.538.

For AACACUGCCAAUGUCGGUCCCUAGCCCGGAUAAAAGUGGAGGGGGCGG, the self-cleavage stood at 0.848.

As to AACACUGCCAAUGUCGGUACCAAGCCCGGAUAAAAGUGGAGGGGGCGG, the self-cleavage amounted to 0.429.

For AACACUGCCAAUGUCGGUUCCAAGCCCGGAUAAAAGUGGAGGGGGCGG, the self-cleavage stood at 1.14.

For the variant AACACUGCCAAUGUCGGUCCCAAGCCCGGAUAAAAGUGGAGGGGGCCG, the self-cleavage was 0.616.

On to AACACUGCCAAUGUCGGUCCCAAGCCCGGAUAAAAGUGGAGGGGGCUG, for which the self-cleavage was determined as 1.

Regarding AACACUGCCAAUGUCGGUCCCAAGCCCGGAUAAACGUGGAGGGGGCGG, the self-cleavage was found to be 1.05.

For the variant AACACUGCCAAUGUCGGUCCCAAGCCCGGAUAAAUGUGGAGGGGGCGG, the self-cleavage was determined as 1.03.

Regarding AACACUGCCAAUGUCGGUCCCAAGCCCGGAUAAAGGUGGAGGGGGCGG, the self-cleavage was determined as 0.917.

The values are drawn from the RNAGym collection of RNA variant scans (doi:10.7554/elife.80360).
